Experimental data as given in publication doi:10.1101/2022.08.30.505852.

Molecular target: βCAT_(666-729), β-catenin residues 666-729 (human) (UniProt P35222)
Experiment: ITC

Chain of βCAT_(666-729), β-catenin residues 666-729 (human) (P35222 666-729): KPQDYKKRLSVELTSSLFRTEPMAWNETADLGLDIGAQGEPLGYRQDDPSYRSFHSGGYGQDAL

Kd: 67 µM
Substance: TAZ1 domain of CBP (residues 346-440) (from UniProt Q92793 346-440) (domain or fragment)
